Source: US20090104207A1

Target: E1s (hepatitis C virus)
Test: coating ELISA, E1s at 0.5 µg/ml, hybridoma supernatant

O.D. (450-595 nm): > 2 O.D.
Substance: 4G2 (antibody)
